Experimental data from PMC6547012, “TCP Transcription Factors Associate with PHYTOCHROME INTERACTING FACTOR 4 and CRYPTOCHROME 1 to Regulate Thermomorphogenesis in Arabidopsis thaliana” (iScience, 2019).

Target: T1, FLAG-CRY1 (Arabidopsis thaliana, UniProt Q43125 1-681)
T1 construct: CRYPTOCHROME 1 (CRY1), Arabidopsis thaliana; source: E. coli-purified
Assay: pull-down; in vitro pull-down; MBP or MBP-TCP17 incubated with FLAG-CRY1 for 2 h at 4°C; immunoblot with anti-MBP or anti-FLAG
Conditions: both partners purified

T1 sequence (Q43125 whole entry): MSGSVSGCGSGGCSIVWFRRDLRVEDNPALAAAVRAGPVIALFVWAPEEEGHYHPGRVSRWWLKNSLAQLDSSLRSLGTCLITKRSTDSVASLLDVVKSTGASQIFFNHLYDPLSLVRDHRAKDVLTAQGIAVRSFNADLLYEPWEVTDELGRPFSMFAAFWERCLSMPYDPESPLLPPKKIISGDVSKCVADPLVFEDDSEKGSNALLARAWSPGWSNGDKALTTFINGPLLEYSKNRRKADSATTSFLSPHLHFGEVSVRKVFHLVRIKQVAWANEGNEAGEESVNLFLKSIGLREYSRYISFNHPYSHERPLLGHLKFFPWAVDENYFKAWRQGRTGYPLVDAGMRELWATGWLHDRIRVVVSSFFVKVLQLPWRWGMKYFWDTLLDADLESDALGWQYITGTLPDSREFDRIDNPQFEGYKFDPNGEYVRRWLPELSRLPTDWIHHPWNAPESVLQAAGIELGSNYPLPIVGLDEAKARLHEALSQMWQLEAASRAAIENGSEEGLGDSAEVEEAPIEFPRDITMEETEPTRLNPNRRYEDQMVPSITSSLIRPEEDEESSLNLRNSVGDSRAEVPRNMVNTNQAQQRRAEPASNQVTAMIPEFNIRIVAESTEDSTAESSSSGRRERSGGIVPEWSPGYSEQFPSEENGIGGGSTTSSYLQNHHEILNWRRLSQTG

binding result: binds
B1: MBP-TCP17 (natural protein, Arabidopsis thaliana, UniProt Q9LEZ9 1-242, looked up)
chain: MGIKKEDQKSSLSLLTQRWNNPRIVRVSRAFGGKDRHSKVCTVRGLRDRRIRLSVMTAIQVYDLQERLGLSQPSKVIDWLLEVAKNDVDLLPPLQFPPGFHQLNPNLTGLGESFPGVFDLGRTQREALDLEKRKWVNLDHVFDHIDHHNHFSNSIQSNKLYFPTITSSSSSYHYNLGHLQQSLLDQSGNVTVAFSNNYNNNNLNPPAAETMSSLFPTRYPSFLGGGQLQLFSSTSSQPDHIE
notes: TCP17, Arabidopsis thaliana; also called MBP-tagged TCP17; source: E. coli expressed and purified
